According to paper PMC4549621, “Molecular basis for mid-region amyloid-β capture by leading Alzheimer's disease immunotherapies” (Scientific Reports, 2015):

Molecular target: T1, amyloid-β peptide residues 12–28 (Aβ12–28), wild type
T1 construct: cut product of the amyloid precursor protein; numbers count on: the Aβ peptide (Asp1 of Aβ); also called Aβ peptide; mid-region of the Aβ peptide; source: bought: Anaspec (95% purity)
T1 chain: VHHQKLVFFAEDVGSNK
Assay: crystal structure; Fab:Aβ12–28 mixed at molar ratio 1:2, dialysed in 10 mM HEPES pH 7.5; crystals from 16% w/v PEG 3350, 50 mM sodium citrate pH 4, 295 K; 2.4 Å, two complexes in the asymmetric unit
Settings: both partners purified

B1: solanezumab Fab fragment (recombinant, Asn55(H2)Ser) (Fab, V domains shown)
VH: EVQLVESGGGLVQPGGSLRLSCAASGFTFSRYSMSWVRQAPGKGLELVAQINSVGSSTYYPDTVKGRFTISRDNAKNTLYLQMNSLRAEDTAVYYCASGDYWGQGTLVTVSS
VL: DVVMTQSPLSLPVTLGQPASISCRSSQSLIYSDGNAYLHWFLQKPGQSPRLLIYKVSNRFSGVPDRFSGSGSGTDFTLKISRVEAEDVGVYYCSQSTHVPWTFGQGTKVEIK
notes: Fab heavy chain of solanezumab; glycosylation site removed by Asn55(H2)Ser; Fab light chain of solanezumab; Parent antibody is IgG1; only the Fab portion was made; source: FreeStyle 293-F cells, co-transfected, purified from supernatant (Ni-NTA, SEC)
binding result: binds
